Measurements published in the supplement of paper PMC10724198.
± gives the standard deviation of the averaged measurements.
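Note: PSI is a weighted mean of sequencing reads over stability bins, variants kept only with over 10 reads, mCherry proximal and sfGFP distal, peptide attached via GGGS linker.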

Each sequence was assayed on Saccharomyces cerevisiae (assay: protein stability index of tFT-peptide fusion (C-terminal peptide) (PSI (0-1 scale)); higher = more stable (slower turnover)). Details: genetic background: wild type; temperature: 30 C.
PPSGSFLFSVHP gave a protein stability index of 0.734 ± 0.016.
With PPSLFRFPPPPR the protein stability index was 0.709 ± 0.074.
PPSLPPHASPTP was tested, and the protein stability index was 0.762 ± 0.079.
PPSNSFHSSIPY gave a protein stability index of 0.678 ± 0.02.
With PPSPAFSSSLPP the protein stability index was 0.635 ± 0.025.
Work on PPSPAPHATARP yielded a protein stability index of 0.662 ± 0.062.
Work on PPSPFHPPPPER yielded a protein stability index of 0.551 ± 0.013.
PPSPPILPPRPP gave a protein stability index of 0.687 ± 0.015.
PPSPPPPSRPIH gave a protein stability index of 0.776 ± 0.021.
Work on PPSPPPPYPAPP yielded a protein stability index of 0.679 ± 0.015.
Work on PPSPPRPHFPSL yielded a protein stability index of 0.739 ± 0.042.
With PPSPRPVPPPCH the protein stability index was 0.705 ± 0.072.
With PPSPSFLPPPPP the protein stability index was 0.676 ± 0.024.
PPSQLPPPPASD was tested, and the protein stability index was 0.746 ± 0.2.
PPSSGPPSPSSL was tested, and the protein stability index was 0.578 ± 0.095.
With PPSSPPHSRRHG the protein stability index was 0.664 ± 0.055.
With PPSVPSRLSHVL the protein stability index was 0.69 ± 0.034.
PPTCRLQPYSRN gave a protein stability index of 0.759 ± 0.013.
In the case of PPTLVPPFPTKV, the protein stability index is reported as 0.742 ± 0.064.
With PPTPPPPLPSSF the protein stability index was 0.77 ± 0.075.
In the case of PPTPRPHPPSRP, the protein stability index is reported as 0.758 ± 0.022.
PPTPSAPHRTRI gave a protein stability index of 0.732 ± 0.026.
PPTPSPAPSPAP showed a protein stability index of 0.601 ± 0.011.
PPTSHHHYHRQQ gave a protein stability index of 0.695 ± 0.053.
With PPVGPPFPPLPH the protein stability index was 0.784 ± 0.13.
Work on PPVLAPCLPLTG yielded a protein stability index of 0.681 ± 0.067.
PPVLHSSEPPDS gave a protein stability index of 0.707 ± 0.024.
PPWPPLLPRPSP gave a protein stability index of 0.666 ± 0.03.
Work on PQLCSPLITIGV yielded a protein stability index of 0.5961 ± 0.0032.
PQLLGWCVGPCR was tested, and the protein stability index was 0.694 ± 0.024.
For PQPLNTLRLTSS, the protein stability index was 0.671 ± 0.034.
For PQSVMFFGAPVW, the protein stability index was 0.687 ± 0.034.
Work on PQTPPPLLPPSL yielded a protein stability index of 0.671 ± 0.013.
With PQTVAHPPPPPR the protein stability index was 0.688 ± 0.04.
PRAGPLAALSLS showed a protein stability index of 0.695 ± 0.026.
With PRCIELASMRRP the protein stability index was 0.681 ± 0.068.
In the case of PRCVRFPPVTLL, the protein stability index is reported as 0.7393 ± 0.0036.
In the case of PRDQPPDGHASP, the protein stability index is reported as 0.6717 ± 0.002.
Sequence PREVGVYQQIRD has a protein stability index of 0.63 ± 0.019.
Sequence PRFFCSGSSPLR has a protein stability index of 0.721 ± 0.026.
With PRFSFSGLPLPP the protein stability index was 0.681 ± 0.11.
PRFSLFSTDHYY was tested, and the protein stability index was 0.679 ± 0.16.
With PRGFVHLPPPYT the protein stability index was 0.756 ± 0.12.
In the case of PRGHLDEFCVVL, the protein stability index is reported as 0.705 ± 0.019.
With PRGHPPIPPPLP the protein stability index was 0.69 ± 0.035.
Sequence PRGPPTPPLTSP has a protein stability index of 0.669 ± 0.043.
In the case of PRGWAGGQITPR, the protein stability index is reported as 0.686 ± 0.03.
Sequence PRGYSASPNLTS has a protein stability index of 0.716 ± 0.023.
Work on PRIIPRLARPQS yielded a protein stability index of 0.69 ± 0.014.
PRIKWKIQIIKK gave a protein stability index of 0.668 ± 0.011.
PRLPPPPTPPLP gave a protein stability index of 0.649 ± 0.16.
In the case of PRLPRRTTTIHG, the protein stability index is reported as 0.71 ± 0.035.
PRLSPPRSPSPP gave a protein stability index of 0.665 ± 0.0091.
Work on PRLSSPAATSPP yielded a protein stability index of 0.709 ± 0.012.
In the case of PRPAPHTGPSPG, the protein stability index is reported as 0.613 ± 0.029.
Work on PRPCASALPPHP yielded a protein stability index of 0.712 ± 0.051.
In the case of PRPCLPPDPPPS, the protein stability index is reported as 0.654 ± 0.0071.
PRPDSRTRLPRP showed a protein stability index of 0.661 ± 0.019.
With PRPGSTTPPAYR the protein stability index was 0.7163 ± 0.0053.
PRPLTRPVPPLS was tested, and the protein stability index was 0.68 ± 0.13.
PRPNGLSTDDLE showed a protein stability index of 0.729 ± 0.056.
PRPPANILPSAP showed a protein stability index of 0.713 ± 0.07.
PRPPHLPPPVPS was tested, and the protein stability index was 0.7299 ± 0.0016.
For PRPPLPLFPSSL, the protein stability index was 0.723 ± 0.048.
PRPPPHPPPSPL gave a protein stability index of 0.50931 ± 0.00043.
PRPPPLPPPLPL showed a protein stability index of 0.5773 ± 0.0032.
With PRPRLPVLPSPS the protein stability index was 0.641 ± 0.098.
In the case of PRPRPSPLPPPS, the protein stability index is reported as 0.751 ± 0.13.
Sequence PRPSPFIGLPFP has a protein stability index of 0.749 ± 0.067.
PRQAPPSLPSPP gave a protein stability index of 0.697 ± 0.076.
In the case of PRRFPCRLRLGF, the protein stability index is reported as 0.702 ± 0.074.
Sequence PRSPARPPFPTP has a protein stability index of 0.6835 ± 0.0049.
PRSPPCPLPPPL showed a protein stability index of 0.65 ± 0.11.
PRSRSHPLCSAP gave a protein stability index of 0.813 ± 0.062.
With PRSSVPATPHRR the protein stability index was 0.72 ± 0.031.
PRSTWPFRLFVR was tested, and the protein stability index was 0.531 ± 0.053.
Work on PRTAAFDSLLPT yielded a protein stability index of 0.688 ± 0.036.
With PRVRSPLLSPPQ the protein stability index was 0.606 ± 0.017.
With PRYSVRGQPRET the protein stability index was 0.728 ± 0.0061.
In the case of PSAFQCQWKTSA, the protein stability index is reported as 0.6383 ± 0.0014.
PSAPFPPVYPLH gave a protein stability index of 0.687 ± 0.017.
PSARASSRTAPS gave a protein stability index of 0.661 ± 0.015.
For PSASYLPCRSKL, the protein stability index was 0.7474 ± 0.0046.
Sequence PSCPAPPAARPL has a protein stability index of 0.74 ± 0.11.
Sequence PSCYDPCSPPPH has a protein stability index of 0.723 ± 0.047.
Work on PSDGCSPSSTGN yielded a protein stability index of 0.696 ± 0.076.
PSEFGAGYVMGG gave a protein stability index of 0.71 ± 0.017.
In the case of PSELGAGYVMGG, the protein stability index is reported as 0.6936 ± 0.0034.
In the case of PSFHASSLSWFS, the protein stability index is reported as 0.745 ± 0.039.
With PSFLLPPLPPPT the protein stability index was 0.718 ± 0.0086.
In the case of PSHPPRHCPPAA, the protein stability index is reported as 0.6628 ± 0.0024.
PSHQRVRGLPSL gave a protein stability index of 0.697 ± 0.041.
For PSLLFHPAPFFP, the protein stability index was 0.756 ± 0.085.
For PSLLHPPLPTSP, the protein stability index was 0.657 ± 0.036.
For PSLLSMHSFSLC, the protein stability index was 0.68 ± 0.014.
PSLPFPPSPPPC was tested, and the protein stability index was 0.7067 ± 0.0022.
PSLPLSPLSDSR was tested, and the protein stability index was 0.717 ± 0.032.
Sequence PSLPPAYPSIAI has a protein stability index of 0.737 ± 0.067.
Work on PSLSDPLAPPQG yielded a protein stability index of 0.757 ± 0.089.
For PSLSPYPLQPRY, the protein stability index was 0.751 ± 0.034.
In the case of PSLTLPPSPRFP, the protein stability index is reported as 0.7585 ± 0.0029.
With PSNSRPRASPAC the protein stability index was 0.67 ± 0.039.
In the case of PSPAPSGPAHHP, the protein stability index is reported as 0.667 ± 0.05.
With PSPLALRTPSFS the protein stability index was 0.692 ± 0.02.
Sequence PSPLPMYPPPTF has a protein stability index of 0.693 ± 0.0083.
Sequence PSPLPVSAPLLP has a protein stability index of 0.701 ± 0.039.
Sequence PSPLTPAAPFPL has a protein stability index of 0.674 ± 0.056.
In the case of PSPPAPPPETSP, the protein stability index is reported as 0.713 ± 0.031.
PSPPASTPLPPP showed a protein stability index of 0.684 ± 0.024.
PSPPCPPTDPPA showed a protein stability index of 0.624 ± 0.011.
For PSPPFLPPPVPL, the protein stability index was 0.685 ± 0.056.
PSPPHLHLHLAP gave a protein stability index of 0.665 ± 0.013.
For PSPPHPPPPLFP, the protein stability index was 0.706 ± 0.02.
Sequence PSPPLCPPRFSP has a protein stability index of 0.652 ± 0.025.
For PSPPLPPLPPSP, the protein stability index was 0.575 ± 0.053.
With PSPPPAPLHSPL the protein stability index was 0.704 ± 0.058.
For PSPPPAPPPQPS, the protein stability index was 0.678 ± 0.052.
PSPPPLPSPPSL gave a protein stability index of 0.738 ± 0.087.
PSPPPTPPPFLP gave a protein stability index of 0.71 ± 0.054.
PSPPRKHAPFRP was tested, and the protein stability index was 0.737 ± 0.0085.
Work on PSPRPSPPLPSP yielded a protein stability index of 0.647 ± 0.076.
Work on PSPSPLPASFRL yielded a protein stability index of 0.683 ± 0.11.
In the case of PSPSPPPCPYPP, the protein stability index is reported as 0.677 ± 0.054.
PSPSSPLPPPPP was tested, and the protein stability index was 0.794 ± 0.035.
With PSPTPSPPFPAP the protein stability index was 0.721 ± 0.038.
Work on PSPTRLPPPSPH yielded a protein stability index of 0.757 ± 0.008.
In the case of PSPYFPVPLLPS, the protein stability index is reported as 0.701 ± 0.028.
With PSQKRITDPRET the protein stability index was 0.683 ± 0.047.
PSRDGNLYAQCR gave a protein stability index of 0.618 ± 0.048.
Work on PSRPTLLTPLSP yielded a protein stability index of 0.695 ± 0.045.
For PSRRFLPEKRSL, the protein stability index was 0.678 ± 0.0039.
For PSRRPPLPLPRP, the protein stability index was 0.714 ± 0.013.
In the case of PSRRPPPPPFLP, the protein stability index is reported as 0.7 ± 0.036.
PSRTSPLSHIPF showed a protein stability index of 0.676 ± 0.023.
PSSFPDPFSPSL gave a protein stability index of 0.735 ± 0.037.
Sequence PSSHPLLPPPPP has a protein stability index of 0.67 ± 0.06.
For PSSPHTAIRHPL, the protein stability index was 0.671 ± 0.02.
Work on PSSPIFPFSSLP yielded a protein stability index of 0.599 ± 0.15.
With PSSPTYVPPSFL the protein stability index was 0.6754 ± 0.0022.
PSSSSWPPPRHP was tested, and the protein stability index was 0.831 ± 0.18.
In the case of PSSSYLSCLPSW, the protein stability index is reported as 0.703 ± 0.083.
PSSTSPQPRLCF showed a protein stability index of 0.686 ± 0.027.
Sequence PSTPPPRLHPSS has a protein stability index of 0.642 ± 0.032.
PSVPSAAPPSSA showed a protein stability index of 0.703 ± 0.02.
Sequence PSVRQSSPRFLH has a protein stability index of 0.667 ± 0.067.
PSYSPPPHPVHR showed a protein stability index of 0.686 ± 0.05.
PTFRLGGYYRKS gave a protein stability index of 0.703 ± 0.055.
PTGLTNPPPCPQ gave a protein stability index of 0.716 ± 0.11.
With PTHGPSPPNVAT the protein stability index was 0.6595 ± 0.00038.
PTIKPSPRFPLS showed a protein stability index of 0.71 ± 0.021.
With PTKLFDTRPRGA the protein stability index was 0.679 ± 0.05.
With PTLLRRPLPNLG the protein stability index was 0.73 ± 0.02.
Work on PTLPPPPRPPAP yielded a protein stability index of 0.657 ± 0.016.
PTLPTPAARPGR showed a protein stability index of 0.696 ± 0.016.
With PTLSPPSPPPPA the protein stability index was 0.665 ± 0.035.
In the case of PTPGRSPKRLPE, the protein stability index is reported as 0.752 ± 0.026.
Sequence PTPLPHTRATPT has a protein stability index of 0.778 ± 0.015.
PTPNPGHTRACL was tested, and the protein stability index was 0.763 ± 0.23.
With PTPPCPLVPPRP the protein stability index was 0.72 ± 0.074.
In the case of PTPPTPTISPTP, the protein stability index is reported as 0.651 ± 0.0052.
